In experiment [1] the target is T1, hu-FGFR1c-His (human, UniProt P11362 22-376).
T1 construct: also called human FGFR1c; not shown: His tag
T1 sequence: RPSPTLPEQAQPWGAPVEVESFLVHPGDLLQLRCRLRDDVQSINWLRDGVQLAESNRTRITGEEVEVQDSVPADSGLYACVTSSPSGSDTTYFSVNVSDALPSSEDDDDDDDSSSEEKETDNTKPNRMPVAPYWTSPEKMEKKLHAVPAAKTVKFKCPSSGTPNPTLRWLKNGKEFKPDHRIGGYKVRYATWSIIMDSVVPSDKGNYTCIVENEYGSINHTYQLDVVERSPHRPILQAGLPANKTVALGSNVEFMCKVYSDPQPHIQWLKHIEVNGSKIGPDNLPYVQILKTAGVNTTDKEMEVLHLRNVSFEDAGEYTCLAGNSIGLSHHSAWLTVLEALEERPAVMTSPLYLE
Nature of the experiment: ELISA (Example 10), antigen on plate, anti-hu-Fc-HRP detection (FIG. 13). On the procedure: Biotin-hu-β-Klotho-His, biotin-mu-βKlotho-His, hu-FGFR1c-His, and mu-FGFR1c-Fc were expressed and purified. Anti-Fc-HRP was purchased from Thermo Fisher Scientific (Rockford, Ill.). Neutravidin 96 well plates (Thermo Fisher Scientific; Rockford, Ill.) were coated with 2 μg/ml biotin-hu-β-Klotho-His or biotin-mu-β-Klotho-His in PBS (Invitrogen; Carlsbad, Calif.). Maxisorp 96 well plates (Thermo Fisher Scientific; Rockford, Ill.) were coated with 2 μg/ml hu-FGFR1c-His or mu-FGFR1c-Fc in PBS. Plates were then incubated at 4° C. overnight. Plates were blocked in 2% milk-PBS at room temperature for 1 hour. Each well was then incubated 1 hour with samples diluted in 2% milk-PBS. Plates were washed 3 times with 300 μl PBS/0.1% Tween20 (Invitrogen; Carlsbad, Calif. and Sigma-Aldrich; St. Louis, Mo.). Anti-hu-Fc-HRP was diluted 1:10000 in 2% milk-PBS and added to each well. Plates were again washed 3 times with 300 μl PBS/0.1% Tween20. Lumiglo reagent (KPL; Gaithersburg, Md.) was added and luminescence was measured (Perkin Elmer; Waltham, Mass.).
(In general: An ELISA detects its analyte on a solid surface through an enzyme-linked reagent.)

Experiment [2] addresses T1, hu-FGFR1c-His. In words: ELISA (Example 10), antigen on plate (FIG. 13).

B1: 2G10-Rm26 (bispecific antibody, human IgG1, lambda, N297Q)
heavy: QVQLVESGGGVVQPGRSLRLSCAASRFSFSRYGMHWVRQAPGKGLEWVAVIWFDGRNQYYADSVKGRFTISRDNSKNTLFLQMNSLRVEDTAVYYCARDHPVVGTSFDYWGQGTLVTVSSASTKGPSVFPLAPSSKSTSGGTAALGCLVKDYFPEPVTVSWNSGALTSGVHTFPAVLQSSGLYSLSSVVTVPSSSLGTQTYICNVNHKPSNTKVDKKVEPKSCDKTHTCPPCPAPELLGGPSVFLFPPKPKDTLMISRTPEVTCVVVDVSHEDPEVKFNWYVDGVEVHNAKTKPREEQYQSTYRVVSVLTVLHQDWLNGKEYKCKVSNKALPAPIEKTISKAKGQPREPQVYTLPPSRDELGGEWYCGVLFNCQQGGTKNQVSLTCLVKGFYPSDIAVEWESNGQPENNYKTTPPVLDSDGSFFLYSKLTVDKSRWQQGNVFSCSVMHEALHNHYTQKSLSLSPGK
light: QSVLTQPPSVSAAPGQKVTVSCSGSSSNIGNNYVSWYQQLPGTAPKLLIYDNNKRPSGIPDRFSGSKSGTSATLGITGLQTGDEAEYYCGTWDSSLSVVAFGGGTKLTVLGQPKANPTVTLFPPSSEELQANKATLVCLISDFYPGAVTVAWKADGSPVKAGVETTKPSKQSNNKYAASSYLSLTPEQWKSHRSYSCQVTHEGSTVEKTVAPTECS
notes: also called H2-Rm26
On to B1, for which the binding result in experiment [1] was “binds”.

B2: 2G10-Rm40 (bispecific antibody, human IgG1, lambda, N297Q)
heavy: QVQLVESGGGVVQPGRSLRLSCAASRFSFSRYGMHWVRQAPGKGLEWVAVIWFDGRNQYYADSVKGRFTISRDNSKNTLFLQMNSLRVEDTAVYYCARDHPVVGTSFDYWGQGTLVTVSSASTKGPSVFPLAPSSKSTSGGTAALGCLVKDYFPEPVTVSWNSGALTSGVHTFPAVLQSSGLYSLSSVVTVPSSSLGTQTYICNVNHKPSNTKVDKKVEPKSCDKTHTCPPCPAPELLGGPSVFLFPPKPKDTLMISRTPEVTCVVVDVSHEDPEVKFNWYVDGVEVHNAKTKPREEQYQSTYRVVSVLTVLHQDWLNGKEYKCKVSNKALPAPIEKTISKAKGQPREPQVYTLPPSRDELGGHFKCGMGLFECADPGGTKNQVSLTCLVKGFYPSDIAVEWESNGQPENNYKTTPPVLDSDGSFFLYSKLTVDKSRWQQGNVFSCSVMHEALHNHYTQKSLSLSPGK
light: B1 light
notes: also called H2-Rm40
Take B2: in experiment [1], the binding result was “binds”.

B3: 1A2-Rm26 (bispecific antibody, human IgG1, kappa, N297Q, V domains shown)
VH: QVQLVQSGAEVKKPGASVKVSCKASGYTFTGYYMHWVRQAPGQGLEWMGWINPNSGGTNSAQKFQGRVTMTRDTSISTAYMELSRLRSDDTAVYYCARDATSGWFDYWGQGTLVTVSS
VL: DIVMTQTPLSSPVTLGQPASISCRSSQSLVYSDGNTYLSWLQQRPGQPPRLLIYKISNRFSGVPDRFSGSGAGTDFTLKISRVEADDVGIYYCMQAIEFPWTFGQGTQVEIKR
notes: also called H1-Rm26
B3: the binding result in experiment [1] is given as “binds”. Turning to YQAWGYYV [SR4], the binding result in experiment [2] is “binds”.

HFKCGMGLFECADP [Rm40]: the binding result in experiment [2] is given as “binds”. The same measure, in the same setting: the entry for EWYCGVLFNCQQ [Rm26] is “binds”.
